# Laboratory results: publication doi:10.1101/2021.04.18.440036 (bioRxiv, 2021)
# Biological target: protective antigen (PA) prepore (Bacillus anthracis V770-NP1-R (ATCC …, UniProt P13423))
# Test: cryo-EM structure
# Sequence of protective antigen (PA) prepore (Bacillus anthracis V770-NP1-R (P13423 whole entry, looked up): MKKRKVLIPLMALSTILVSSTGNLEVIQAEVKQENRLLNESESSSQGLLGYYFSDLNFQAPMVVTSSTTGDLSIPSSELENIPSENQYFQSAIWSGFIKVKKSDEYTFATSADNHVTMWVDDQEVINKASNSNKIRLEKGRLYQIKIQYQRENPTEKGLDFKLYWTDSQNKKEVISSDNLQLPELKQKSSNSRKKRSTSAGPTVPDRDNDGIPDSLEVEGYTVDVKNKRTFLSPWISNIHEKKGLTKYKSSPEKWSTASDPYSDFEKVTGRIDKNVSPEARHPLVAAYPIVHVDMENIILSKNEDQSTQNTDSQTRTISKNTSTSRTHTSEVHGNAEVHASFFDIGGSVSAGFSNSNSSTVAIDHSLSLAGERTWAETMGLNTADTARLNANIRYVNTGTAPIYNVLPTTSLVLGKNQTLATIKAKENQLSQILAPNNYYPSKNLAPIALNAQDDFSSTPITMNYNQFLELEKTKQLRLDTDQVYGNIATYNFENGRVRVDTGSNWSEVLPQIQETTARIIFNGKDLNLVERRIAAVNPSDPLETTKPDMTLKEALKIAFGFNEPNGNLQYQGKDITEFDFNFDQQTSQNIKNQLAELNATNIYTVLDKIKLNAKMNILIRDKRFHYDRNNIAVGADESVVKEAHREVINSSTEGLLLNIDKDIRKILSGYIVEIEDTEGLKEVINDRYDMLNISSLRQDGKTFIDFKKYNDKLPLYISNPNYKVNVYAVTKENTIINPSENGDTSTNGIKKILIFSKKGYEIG
binder,measurement,value
"cAb29 Fab (Fab, V domains shown) VH: QVQLQQSGAELVKPGASVKMSCKASGYIFTNYNMHWVQQTPGQGLEWIGAIYPRTGDTSYNQKFKGKATLTADKSSSTAYMQLSSLTSEDSAVYYCARDGFAYWGQG VL: DIQMTQTTSSLSASLGDRVTISCRASQDISNYLNWYQQKPDGTVKLLIYYTSRLHSEVPSRFSGSGSGTDYSLTISNLEEEDIATYFCQQGKTLPWTFGGG",binding result,binds
